Data on three sequences can be found in patent US20210332360.

Where only a bound is given, the exact number is not on record here.

Experiment in all cases: flow
Data set [1] has as its target T1, DC-SIGN (SIGNR1/CD209b) (Mus musculus) (UniProt Q8CJ91).
T1 sequence: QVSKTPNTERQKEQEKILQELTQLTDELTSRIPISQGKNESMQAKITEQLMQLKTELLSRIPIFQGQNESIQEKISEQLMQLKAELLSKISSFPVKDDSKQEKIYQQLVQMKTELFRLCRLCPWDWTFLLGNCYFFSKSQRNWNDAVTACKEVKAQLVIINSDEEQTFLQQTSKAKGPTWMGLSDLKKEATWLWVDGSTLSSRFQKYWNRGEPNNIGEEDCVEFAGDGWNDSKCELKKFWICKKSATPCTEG
Conditions: after the 5' primer region all dT replaced by 4 (alpha-D-mannose-triazole-modified C8-alkyne-dU); counter-target; 3.5-fold weaker than human.

In data set [2] the target is T2, DC-SIGN (DC-SIGNR/CD299) (Homo sapiens) (UniProt Q9H2X3).
T2 sequence: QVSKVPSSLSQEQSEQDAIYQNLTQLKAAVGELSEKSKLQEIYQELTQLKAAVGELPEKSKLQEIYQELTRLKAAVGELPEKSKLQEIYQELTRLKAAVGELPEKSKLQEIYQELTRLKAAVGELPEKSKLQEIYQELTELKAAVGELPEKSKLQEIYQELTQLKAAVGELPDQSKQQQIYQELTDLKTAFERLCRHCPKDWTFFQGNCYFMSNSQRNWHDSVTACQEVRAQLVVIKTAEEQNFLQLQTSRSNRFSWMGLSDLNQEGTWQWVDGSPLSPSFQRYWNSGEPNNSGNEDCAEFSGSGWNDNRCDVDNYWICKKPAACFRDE
Conditions: after the 5' primer region all dT replaced by 4 (alpha-D-mannose-triazole-modified C8-alkyne-dU); particle-displayed; SB with Mg, Ca, Mn.

For data set [3], the target named is T3, Pisum sativum agglutinin (PSA) (Pisum sativum) (UniProt P02867+P02867).
T3 sequence 1: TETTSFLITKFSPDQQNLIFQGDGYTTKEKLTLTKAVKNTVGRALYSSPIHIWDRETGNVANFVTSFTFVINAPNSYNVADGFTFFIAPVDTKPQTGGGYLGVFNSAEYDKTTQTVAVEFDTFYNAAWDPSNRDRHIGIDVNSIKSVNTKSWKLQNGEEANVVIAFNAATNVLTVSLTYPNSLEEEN
T3 sequence 2: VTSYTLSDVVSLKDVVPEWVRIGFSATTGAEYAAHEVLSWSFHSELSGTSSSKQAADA
Conditions: counter-target.

Take “GATCCCAGTCCGAAGTAATCCAAGGGTAATTGGGAAATAAGGATGGGGTAATATGCAACCCTTGTGCAAACGGCTATAGG [D1]”: the Kd in data set [1] came out at 12.5 nM; in data set [2], 3.6 nM.

For the sequence “GATCCCAGTCCGAAGTAATCGTTGCATCTGCACGACTGGTGAGCTTGAGTGGCAGAAGAACTTGTGCAAACGGCTATAGG [3-1]”, the Kd in data set [3] (after the 5' primer region (GATCCCAGTCCGAAGTAATC, natural) all dT replaced by 4 (alpha-D-mannose-triazole-modified C8-alkyne-dU) and all dC by 2 (5-formyl-dC)) is > 1000 nM.

As to “GATCCCAGTCCGAAGTAATCGTTGCATCTGCACGACTGGTGAGCTTGAGTGGCAGAAGAACTTGTGCAAACGGCTATAGG [3-1m]”, the Kd in data set [3] (after the 5' primer region all dT replaced by 4 (alpha-D-mannose-triazole-modified C8-alkyne-dU), natural dC) is > 1000 nM.

A word on the Kd: it is the free concentration of one partner at which half of the binding sites on the other are occupied at equilibrium, for simple one-to-one binding.
